Assays:
bovine chymotrypsin = bovine chymotrypsin (Bos taurus, UniProt P00766); experiment: Inhibition of bovine chymotrypsin; format: biochemical; conditions: 100 ng bovine chymotrypsin, pH 10; for % Inhibition BC: at maximum concentration tested
Procedure: (§1) Several proteinase inhibitors were tested for their ability to inhibit the activity of the insensitive chymotrypsins. The buffer used for all assays was 500 mM CAPS, 75 mM NaCl, 2.5 mM MgCl2 at pH 10.

[1] = system: chymotrypsin activity in unfractionated gut extracts from H. punctigera; experiment: Chymotrypsin activity in unfractionated gut extracts with proteinase inhibitors (FIG. 3); format: biochemical, Helicoverpa punctigera; conditions: larvae raised on haricot bean diet without added proteinase inhibitors; substrate SAAPFpNA
Procedure: FIG. 3 is a graphical representation showing the effect of various proteinase inhibitors on the chymotrypsin activity in unfractionated gut extracts from H. punctigera. Proteinase inhibitors were mixed with 1 μg of protein from an unfractionated gut extract before incubation with the chymotrypsin substrate N-succinyl-Ala-Ala-Pro-Phe-p-nitroanilide. Inhibition is expressed as a percentage of the total activity in the control samples.
Fourth-instar larvae were killed using ethyl-acetate prior the removal of individual gut which were then homogenized in a mortar and pestle in an equal amount [(w/v)] of 50 mM Tris-HCl, pH 8.0 containing 100 μM benzamidine. Insoluble material was removed by centrifugation at 20,000 rpm for 15 min at 4° C. and total protein concentration determined using the Bradford method (Bradford, Anal Biochem 72: 248-254, 1976) with reagents from BioRad and BSA as a standard.
Unfractionated gut extract containing approximately 1 μg of buffer soluble protein was added to 10 μL CAPS buffer (0.5 M, 3-[cyclohexylamino]-1-propane-sulfonic acid, pH 10) and made to a final volume of 100 μL in individual wells of a 96 well microtiter plate. Proteinase inhibitors were added over a range of concentrations and incubated for 15 min at 25° C. Bovine chymotrypsin (100 ng) was used as a positive control, both for activity and inhibition. The chromogenic artificial substrate SAAPFpNA (N-Succinyl-L-alanyl-L-alanyl-L-prolyl-L-phenylalanine 4-nitroanilide) was then added to a final concentration of 1 mM and hydrolysis of the substrate was measured at 405 nm using the SpectraMax 250 microtiter plate reader (Molecular Devices).

[2] = system: chymotrypsin activity in gut extracts of H. punctigera larvae; experiment: Inhibition of chymotrypsin activity in individual larval gut extracts (FIG. 2F); format: biochemical, Helicoverpa punctigera; conditions: pre-incubated with 80 nM
Description: FIG. 2 is a graphical representation showing growth of H. punctigera larvae fed on either low protein haricot bean artificial diet or cotton leaf artificial diet, in the presence or absence of 0.26% (w/v) NaPIs. Weight gain (mg) was monitored for 21 days. […] (A) Growth of larvae. (B) Relative size of larvae at 21 days after feeding on cotton artificial diet, in the presence or absence of 0.26% NaPIs. […] (C) The effect of NaPIs on gut trypsin and chymotrypsin activity. When each H. punctigera larva reached the late fourth/early fifth instar stage of development, the gut was removed and gut extract prepared prior to assays for trypsin and chymotrypsin activity. […] Trypsin activity was determined using BApNA substrate and chymotrypsin activity with SAAPFpNA substrate. Units of activity are expressed as change in absorbance at 405 nm/min/mg gut extract protein (±standard deviation). […] Trypsin activity was determined using BApNA substrate and chymotrypsin activity with SAAPFpNA substrate. Units of activity are expressed as change in absorbance at 405 nm/min/mg faecal extract protein (±standard deviation). […] Frass extracts were analysed on 15% ((w/v)) SDS-PAGE and transferred to nitrocellulose. […] Units of activity are expressed as substrate hydrolysis at 405 nm/min/mg extract protein (±standard deviation). […] Trypsin activity was determined using BApNA substrate. […]

[3] = target: NaPI-insensitive chymotrypsins from H. punctigera (Helicoverpa punctigera, UniProt A0PGE0); experiment: Inhibition of NaPI-insensitive chymotrypsin (gut extract depleted of trypsins and NaPI-sensitive chymotrypsins); format: biochemical; conditions: pH 10, 30 min preincubation at 30° C.
Procedure: The midgut was dissected from 100 fourth instar larvae and buffer soluble extracts were prepared. The gut extract was depleted of NaPI-sensitive proteases by passage through an affinity column composed of immobilized NAPI protein (C1, C2, T1-T4). […] This preparation of unbound material was used to study the pH optimum, substrate preference and effect of a range of proteinase inhibitors on the activity of the NaPI-insensitive proteinase. […] The best substrate for enzyme assays was determined using seven different commercial substrates.
as §1

[4] = system: trypsin activity in gut extracts; conditions: in vitro, cited from earlier work
[5] = system: chymotrypsin from the gut of H. zea larvae; conditions: cited from earlier work
[6] = system: Agrotis ipsilon (black cutworm); conditions: after exposure in the diet; cited from earlier work

Chain of NaPI-insensitive chymotrypsins from H. punctigera (A0PGE0 entry or part of it): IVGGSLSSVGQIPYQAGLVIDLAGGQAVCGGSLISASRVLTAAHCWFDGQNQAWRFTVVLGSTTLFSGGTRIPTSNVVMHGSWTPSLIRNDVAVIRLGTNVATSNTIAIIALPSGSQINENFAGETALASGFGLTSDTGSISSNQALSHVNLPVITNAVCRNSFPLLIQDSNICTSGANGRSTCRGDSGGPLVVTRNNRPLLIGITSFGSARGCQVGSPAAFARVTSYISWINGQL

Molecule: CC(C)C[C@H](NC(=O)[C@@H](NC(=O)N[C@@H](Cc1ccccc1)C(=O)O)[C@@H]1CCN=C(N)N1)C(=O)N[C@H](C=O)Cc1ccccc1 [Chymostatin, reference compound]
- % Inhibition BC (bovine chymotrypsin): 100%
- inhibition of gut chymotrypsin activity (in words) [1]: totally inhibited
- inhibition of chymotrypsin activity, extracts from control and NaPI-fed larvae [2]: all chymotrypsin activity was abolished

B1: SBTI: soybean trypsin inhibitor (protein, UniProt P01070 25-205, looked up)
Trypsin inhibitor A: DFVLDNEGNPLENGGTYYILSDITAFGGIRAAPTGNERCPLTVVQSRNELDKGIGTIISSPYRIRFIAEGHPLSLKFDSFAVIMLCVGIPTEWSVVEDLPEGPAVKIGENKDAMDGWFRLERVSDDEFNNYKLVFCPQQAEDDKCGDIGISIDHDDGTRRLVVSKNKPLVVQFQKLDKESL
- % Inhibition Insensitive ([3]; at maximum concentration tested): 82%
- IC50 [3]: 33 µM
- IC50 (bovine chymotrypsin): 13 µM
- % Inhibition BC (bovine chymotrypsin): 94%
- inhibition of gut chymotrypsin activity (in words) [1]: failed to abolish all the chymotrysin activity
- inhibition of gut trypsin activity in larvae that had consumed SBTI ([4]; 48 h on diet with 1% SBTI): 3%
- inhibition of trypsin activity in gut extracts from control larvae [4]: 74%
- inhibition of chymotrypsin activity from the gut of insects with prior exposure to SBTI in the diet [5]: 35%
- inhibition of chymotrypsin from the gut of control insects [5]: 95%
- reduction in total gut proteolytic activity [6]: ≤ 70%
